Test results from publication PMC4124035 (Nature structural & molecular biology, 2014).
Where two headings read alike, the source gives them in different places. Each block holds one molecule with its values, some of them ahead of it.

Key:
[1] = tested on: RPAP2 (1-334); assay: In vitro DiFMUP phosphatase assay; assay type: biochemical, human; conditions: 10 μM DiFMUP, 50 mM 3,3-dimethylglutaric acid pH 6.5, 37°C, fluorescence every 20 min for 2 hours
[2] = target: T1, RPRD1A CID (Homo sapiens, UniProt Q96P16); assay: ITC binding of CTD peptides to RPRD1A CID; conditions: ratio of Kd values of Table 1
T1 sequence (Q96P16 2-137): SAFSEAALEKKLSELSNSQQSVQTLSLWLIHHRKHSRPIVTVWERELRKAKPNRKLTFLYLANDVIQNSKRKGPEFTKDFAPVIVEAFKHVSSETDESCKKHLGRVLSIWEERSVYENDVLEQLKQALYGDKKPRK

[3] = target: T2, RPRD1B CID (Homo sapiens, UniProt Q9NQG5); assay: ITC binding of CTD peptides to RPRD1B CID; conditions: ratio of Kd values of Table 1
T2 sequence (Q9NQG5 2-135): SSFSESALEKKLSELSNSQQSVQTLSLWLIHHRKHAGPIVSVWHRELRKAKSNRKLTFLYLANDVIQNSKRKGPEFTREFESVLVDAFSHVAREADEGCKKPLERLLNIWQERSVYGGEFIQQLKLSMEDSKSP

[4] = target: T3, RPRD2 CID (Homo sapiens, UniProt Q5VT52); assay: ITC binding of CTD peptides to RPRD2 CID; conditions: ratio of Kd values of Table 1
T3 sequence (Q5VT52 15-161): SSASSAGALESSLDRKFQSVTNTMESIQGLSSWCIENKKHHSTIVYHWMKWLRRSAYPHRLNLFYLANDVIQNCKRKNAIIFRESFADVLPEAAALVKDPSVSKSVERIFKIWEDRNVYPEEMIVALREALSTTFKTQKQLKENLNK

[5] = tested on: RPAP2; assay: Phosphatase assay with pNPP substrate; assay type: biochemical, human; conditions: unpublished data
[6] = tested on: RPAP2; assay: In vitro phosphatase ELISA on biotinylated CTD peptides; assay type: biochemical, human; conditions: Supplementary Fig. 4d
[7] = target: RPRD1B coiled-coil domain (human) (UniProt Q9NQG5); assay: AUC
[8] = target: RPRD1B coiled-coil domain (human) (UniProt Q9NQG5); assay: AUC; remark: listed apart in the source
[9] = target: RPRD1B coiled-coil domain (solution experiments) (human) (UniProt Q9NQG5); assay: AUC
[10] = target: RPRD1A CTD interaction domain (CID), residues 2-137 (human) (UniProt Q96P16); assay: ITC
[11] = target: RPRD1B CTD interaction domain (CID), residues 2-135 (human) (UniProt Q9NQG5); assay: ITC
[12] = target: RPRD2 CTD interaction domain (CID), residues 15-161 (human) (UniProt Q5VT52); assay: ITC
[13] = target: T4, RPRD1A CID R106A (human, UniProt Q96P16 2-137, R106A); assay: ITC
T4 sequence: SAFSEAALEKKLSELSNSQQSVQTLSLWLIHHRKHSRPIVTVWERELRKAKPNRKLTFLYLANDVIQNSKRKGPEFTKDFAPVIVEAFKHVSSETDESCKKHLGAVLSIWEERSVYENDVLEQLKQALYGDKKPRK

Molecule: Cc1cc(=O)oc2c(F)c(OP(=O)(O)O)c(F)cc12 [DiFMUP, 6,8-difluoro-4-methylumbelliferyl phosphate]
dephosphorylation of the substrate by RPAP2 (1-334) [1]: dephosphorylated DiFMUP in a time- and dose-dependent manner

Molecule: C[C@@H](O)[C@H](NC(=O)[C@@H]1CCCN1C(=O)[C@H](COP(=O)(O)O)NC(=O)[C@H](Cc1ccc(O)cc1)NC(=O)[C@H](COP(=O)(O)O)NC(=O)[C@@H]1CCCN1C(=O)[C@H](CO)NC(=O)[C@@H](NC(=O)[C@@H]1CCCN1C(=O)[C@H](COP(=O)(O)O)NC(=O)[C@H](Cc1ccc(O)cc1)NC(=O)[C@H](CO)NC(=O)[C@@H]1CCCN1C(=O)[C@@H](N)CO)[C@@H](C)O)C(=O)N[C@@H](CO)C(=O)N1CCC[C@H]1C(=O)N[C@@H](COP(=O)(O)O)C(=O)N[C@@H](Cc1ccc(O)cc1)C(=O)N[C@@H](CO)C(=O)O [S2,7P CTD]
fold increase of RPRD1A CID affinity compared to S2P CTD [2]: 1.6 fold | fold increase of RPRD1B CID affinity compared to S2P CTD [3]: 2.6 fold | fold increase of RPRD2 CID affinity compared to S2P CTD [4]: remained unchanged

phosphatase activity of RPAP2 on the substrate [5]: No measurable phosphatase activity
Molecule: O=[N+]([O-])c1ccc(OP(=O)(O)O)cc1 [pNPP, para-nitrophenylphosphate]

Molecule: [O]=[V]([O-])([O-])[O-] [vanadate]
inhibition of RPRD1A-dependent S5 dephosphorylation by RPAP2 [6]: inhibited

stoichiometry N [7]: 2 | stoichiometry N [8]: 2
Molecule: RPRD1B coiled-coil domain (from UniProt Q9NQG5 137-326) (domain or fragment)

percent dimer [9]: 89.6%
Molecule: RPRD1B coiled-coil domain (solution experiments) (from UniProt Q9NQG5 137-326) (domain or fragment)

Kd [10]: > 1000 µM | Kd [11]: > 1000 µM | Kd [12]: > 1000 µM
Molecule: S2,5P CTD peptide

fold increase of affinity compared to S2P alone [10]: 1.6 fold | fold increase of affinity compared to S2P alone [11]: 2.6 fold
Molecule: S2,7P CTD peptide

Kd [10]: > 1000 µM | Kd [11]: > 1000 µM | Kd [12]: > 1000 µM
Molecule: S5,7P CTD peptide

Kd [10]: > 1000 µM | Kd [11]: > 1000 µM | Kd [12]: > 1000 µM
Molecule: S5P CTD peptide

fold reduction of binding against wild type [13]: ~27 fold
Molecule: SPSYSPTSPSYSPTSPSYS [19-mer S2P CTD peptide]
